In article PMC4895442, “Geometrical assembly of ultrastable protein templates for nanomaterials” (Nature Communications, 2016):

What was measured:
[1] = biological target: TERM-foldon three-way connector (Methanocaldococcus jannaschii | bacteriophage T4) (UniProt P10104); experiment: SDS-PAGE without heating; refolded three-way connector dialyzed against PBS, SDS loading buffer added, incubated at 25-100 °C for 5 min, 10-20% gradient SDS-PAGE; the foldon trimer resists SDS
[2] = biological target: the molecule itself; experiment: negative-stain TEM; proteins refolded together at varying molar ratios, diluted in PBS to 20 μg/ml, on carbon/formvar grids, 2% uranyl acetate

TERM-foldon three-way connector (from UniProt P10104 2-81)
stoichiometry N [1]: 3

B1: γ-prefoldin (γPFD), wild type (natural protein, Methanocaldococcus jannaschii, UniProt Q58064 1-147, looked up)
chain: MVNEVIDINEAVRAYIAQIEGLRAEIGRLDATIATLRQSLATLKSLKTLGEGKTVLVPVGSIAQVEMKVEKMDKVVVSVGQNISAELEYEEALKYIEDEIKKLLTFRLVLEQAIAELYAKIEDLIAEAQQTSEEEKAEEEENEEKAE
notes: γ-prefoldin (γPFD), filamentous prefoldin-family chaperone of the hyperthermophile Methanocaldococcus jannaschii; wild type; Assembles into filaments of variable length through the β-sheets X1 and X2; also called γPFD filaments; γPFD subunits
binding result [2]: binds
